# Test results: patent US20090291088A1 (Biogen, published 2009)
# B1: M13-C06 Fab (Fab, V domains shown)
# VH: EVQLLESGGGLVQPGGSLRLSCAASGFTFSIYRMQWVRQAPGKGLEWVSGISPSGGTTWYADSVKGRFTISRDNSKNTLYLQMNSLRAEDTAVYYCARWSGGSGYAFDIWGQGTMVTVSS
# VL: DIQMTQSPLSLSASVGDRVTITCQASRDIRNYLNWYQQKPGKAPKLLIYDASSLQTGVPSRFGGSGSGTDFSFTIGSLQPEDIATYYCQQFDSLPHTFGQGTKLEIK
# notes: Human Fab from a phage library, kappa light chain
# Biological target: T1, human IGF-1R(1-902)-His10 (human, UniProt P08069 31-932)
# T1 construct: Cy5-labelled in tr-FRET; also called hIGF-1R-His10; IGF-1R-His
# Test: SPR, Fab over captured IGF-1R-10His
# Description: All surface plasmon resonance (SPR) experiments were performed on a Biacore 3000 set to 25° C. using HBS-EP (Biacore, Cat. No. BR-1001-88) as the running buffer. A biotin-labeled anti-HisTag antibody (biotin-PENTA-His, Qiagen Cat. No. 34440) was immobilized to saturation on a Biacore SA chip (Cat. No. BR-1000-32) surface by injection at 500 nM in HBS-EP buffer. […] Subsequent to IGF-1R injections, flow rates were increased to 20 μL/min. A second, 130 μL injection of anti-IGF-1R antibody or Fab was performed to investigate interactions with the receptor. Each antibody and Fab was serially diluted from 64 nM to 0.5 nM to obtain concentration dependent kinetic binding curves. Each injection series was regenerated using 3×10 μL injections of 10 mM Acetate, pH 4.0, at 20 μL/min. Each curve was double referenced using (1) data obtained from a streptavidin surface devoid of IGF-1R and (2) data from a primary injection of IGF-1R followed by a secondary injection of HBS-EP buffer. The concentration series for each antibody and Fab was fit to the 1:1 binding model provided within the BiaEvaluation software of the manufacturer.
# To obtain discrete affinities, Fab fragments of each antibody were generated using papain digestion as described above.
binder,measurement,value
B1,koff,0.0012 s⁻¹
same,kon,880000 M⁻¹ s⁻¹
